Results on 2 molecules are retold here after US20150023943, “REF Nuclease for Site-Specific REF-Mediated DNA Cleavage” (Wisconsin Alumni Research Foundation, published 2015).

Series [1] concerns the target T1, φW39 ΔN21 Ref (Bacteriophage phi W39).
T1 chain: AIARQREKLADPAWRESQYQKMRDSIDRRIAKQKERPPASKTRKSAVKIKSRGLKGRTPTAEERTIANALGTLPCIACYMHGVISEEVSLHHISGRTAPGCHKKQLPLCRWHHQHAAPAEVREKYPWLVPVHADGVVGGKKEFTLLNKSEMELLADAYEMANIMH
Put plainly: FP; apparent Kd; 119±9; 15 mM Mg acetate, pH 8.5, 25 C. The following applies: tags: expressed from pET21A with NdeI start Met; label: 5'-6FAM. The method, then:
(§1) Fluorescence polarization DNA binding assay—Ref (or a variant) at 0.5-10,000 nM was incubated with 2 nM AJM25 71mer ssDNA or AJM25 annealed with AJG52 71mer to make dsDNA substrate in 25 mM Tris-acetate (pH 8.5), 3 mM potassium glutamate, 15 mM magnesium acetate, and 5% w/v glycerol at room temperature for 15 minutes. Fluorescence anisotropy (FA) was measured at 25° C., using a Tecan Infinite M1000 instrument with 470-nm excitation and 535-nm emission wavelengths for at least three replicates; the average FA values were plotted with one standard deviation of the mean shown as error. Prism software was used to convert FA values to the fraction of DNA bound and apparent dissociation constants were the Ref concentration (or variant) needed for 50% binding saturation.
(§2) Fluorescence polarization assays with labeled DNA substrates (ssDNA and dsDNA) were carried out to determine dissociation constants of each of the N-terminal domain truncations. […] For the P1 ΔN76 Ref protein, this is consistent with EMSA data from the earlier study (Gruenig et al 2011, supra). […] This indicates the presence of a critical sequence domain between residues 47-74.

The target of series [2] is T2, φW39 ΔN47 Ref (Bacteriophage phi W39).
T2 chain: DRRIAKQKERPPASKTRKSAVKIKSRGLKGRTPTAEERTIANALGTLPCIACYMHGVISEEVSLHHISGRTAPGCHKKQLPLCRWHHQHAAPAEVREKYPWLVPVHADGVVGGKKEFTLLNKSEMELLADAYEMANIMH
Nature of the series: FP; apparent Kd; 113±7; 15 mM Mg acetate, pH 8.5, 25 C. The settings on record: tags: expressed from pET21A with NdeI start Met; label: 5'-6FAM. As for the experimental part: as §1, §2

The target of series [3] is T3, P1 Ref (wild type) (Bacteriophage P1, UniProt P35926 SEQ:1-186).
T3 sequence: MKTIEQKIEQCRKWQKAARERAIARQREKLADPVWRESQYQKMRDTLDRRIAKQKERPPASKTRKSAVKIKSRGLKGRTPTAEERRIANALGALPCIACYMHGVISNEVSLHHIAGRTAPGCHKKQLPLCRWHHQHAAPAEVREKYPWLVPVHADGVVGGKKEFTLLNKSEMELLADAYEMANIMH
Nature of the series: FP; apparent Kd; 14±1; 25 mM Tris-acetate pH 8.5, 15 mM Mg acetate, 3 mM K glutamate, 25 C. The settings on record: label: 5'-6FAM. The method, then:
as §1, §2

Series [4] has as its target T4, P1 ΔN76 Ref (Bacteriophage P1, UniProt P35926 SEQ:77-186).
T4 chain: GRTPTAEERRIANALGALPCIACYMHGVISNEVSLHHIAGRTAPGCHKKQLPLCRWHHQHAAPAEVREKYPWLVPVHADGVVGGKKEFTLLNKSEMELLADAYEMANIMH
Put plainly: FP; no binding detected up to 10,000 nM; consistent with earlier EMSA. The following applies: label: 5'-6FAM. As for the experimental part: as §1, §2
(In general: In EMSA bound probe runs differently from free probe, usually more slowly.)

Series [5] deals with T5, φW39 ΔN74 Ref (Bacteriophage phi W39).
T5 chain: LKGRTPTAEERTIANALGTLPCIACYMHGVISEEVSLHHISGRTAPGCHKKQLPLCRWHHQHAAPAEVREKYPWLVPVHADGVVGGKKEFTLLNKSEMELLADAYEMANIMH
Put plainly: FP; no binding detected up to 10,000 nM. The settings on record: tags: expressed from pET21A with NdeI start Met; label: 5'-6FAM. As for the experimental part: as §1, §2

The target in series [6] is T4, P1 ΔN76 Ref. Put plainly: FP; no observable binding. The settings on record: label: 5'-6FAM on AJM25. As for the experimental part: (§3) The truncations were also assayed with a 71mer dsDNA substrate made by annealing the labeled 71mer oligonucleotide (AJM25) with the complementary 71mer oligonucleotide (AJG52). […] As the second motif and part of the third motif were removed in the φW39 ΔN59 and φW39 ΔN66, dsDNA binding was further reduced. As with the ssDNA, φW39 ΔN74 and P1 ΔN76 Ref had no observable dsDNA binding. Overall we provide evidence that the N-terminal region of Ref is necessary for DNA binding, and the putative charge motifs may contribute collectively to that function.
(§4) Ref proteins at 0.5-10,000 nM were incubated with 2 nM AJM25 71mer ssDNA or AJM25 annealed with AJG52 71mer to make a linear 71 bp dsDNA substrate in 25 mM Tris-acetate (pH 8.5), 3 mM potassium glutamate, 15 mM magnesium acetate, and 5% w/v glycerol at room temperature for 15 minutes. Fluorescence anisotropy (FA) was measured at 25° C., using a Tecan Infinite M1000 instrument with 470-nm excitation and 535-nm emission wavelengths for at least three replicates. The average FA values were plotted with one standard deviation of the mean shown as error. Prism software was used to convert FA values to the percent of DNA bound and apparent dissociation constants were determined using one-site, specific binding with Hill coefficient.

Series [7] concerns the target T5, φW39 ΔN74 Ref. Nature of the series: FP; no observable binding. The following applies: tags: expressed from pET21A with NdeI start Met; label: 5'-6FAM on AJM25. The method, then:
as §3, §4

The target in series [8] is T3, P1 Ref (wild type). Put plainly: FP; apparent Kd; 14±1; cooperative; 15 mM Mg acetate, pH 8.5, 25 C. The settings on record: label: 5'-6FAM on AJM25. As for the experimental part: as §1
(§5) The truncations were also assayed with 71mer dsDNA substrate. The dsDNA substrate was made by annealing the labeled 71mer oligonucleotide (AJM25) with the complementary 71mer oligonucleotide (AJG52). […] Instead, an increase in KD is seen as more of the N-terminus is truncated (FIG. 2B, 2C). Also, there is an apparent cooperativity when binding to dsDNA, and this cooperativity decreases as the N-terminus is truncated (FIG. 2C). This provides evidence that the N-terminal region of Ref is necessary for DNA binding. Specifically, the amino acids between position 47 and 74 are particularly important.

Series [9] has as its target T2, φW39 ΔN47 Ref. Nature of the series: FP; apparent Kd; 143±12; 15 mM Mg acetate, pH 8.5, 25 C. The following applies: tags: expressed from pET21A with NdeI start Met; label: 5'-6FAM on AJM25. As for the experimental part:
as §1, §5

The target of series [10] is T1, φW39 ΔN21 Ref. Nature of the series: FP; apparent Kd; 56±3; 15 mM Mg acetate, pH 8.5, 25 C. The following applies: tags: expressed from pET21A with NdeI start Met; label: 5'-6FAM on AJM25. The method, then: as §1, §5

B1: AJM25 71mer ssDNA (ssDNA)
DNA: CAGAAGTAAGTTGGCCGCAGTGTTATCACTCATGGTTATGGCAGCACTGCATAATTCTCTTACTGTCATGC
Regarding B1, the Kd is 119 nM with φW39 ΔN21 Ref [1], 113 nM in the series with φW39 ΔN47 Ref [2] and 14.4 nM in the series with P1 Ref (wild type) [3]. Further, the binding result in the series with P1 ΔN76 Ref [4] and with φW39 ΔN74 Ref [5] was “no binding” in each case.

B2: AJM25/AJG52 71 bp dsDNA (dsDNA)
DNA 1: CAGAAGTAAGTTGGCCGCAGTGTTATCACTCATGGTTATGGCAGCACTGCATAATTCTCTTACTGTCATGC
DNA 2: GCATGACAGTAAGAGAATTATGCAGTGCTGCCATAACCATGAGTGATAACACTGCGGCCAACTTACTTCTG
On to B2, for which the binding result with P1 ΔN76 Ref [6] and with φW39 ΔN74 Ref [7] was “no binding” each time. For the same molecule, the values for the Kd with P1 Ref (wild type) [8], with φW39 ΔN47 Ref [9] and with φW39 ΔN21 Ref [10] were 13.5 nM, 142 nM and 56.1 nM, respectively.
